Data as given in patent US20260103529A1, “Amino Acid Sequences Directed Against the Melanocortin 4 Receptor and Polypeptides Comprising the Same for the Treatment of MC4R-Related Diseases and Disorders” (Confo Therapeutics N.V., priority 2022, published 2026).

Molecular target: MC4R of the CHO stable cell line used for radioligand displacement (Table 1A) (UniProt P32245)
Test: radioligand displacement, CHO stable cell line, n = 2; radioligand not named

B1: pN0162 (VHH)
VHH: QVQLVESGGGLVQPGGSLRLSCAASGSAFSLNVMGWYRQTPGNQRALVAEITKDGSTNYADSAKGRFTISRDNAKNTVHLQMDSLKPEDTAVYYCKARTGRIVRPLDYWGQGTQVTVSS
Radioligand displacement (IC50 or Ki not stated): 6.48 nM
